Data taken from patent US6913892 (H LUNDBECK A S, dated 2005).
Where no end group is shown, it is not given here.

T1: human Y1 receptor (human, UniProt P25929 1-384)
T1 construct: Transiently expressed in COS-7 cells; membranes used; also called cloned human Y1 receptor (Larhammar et al., 1992)
T1 sequence: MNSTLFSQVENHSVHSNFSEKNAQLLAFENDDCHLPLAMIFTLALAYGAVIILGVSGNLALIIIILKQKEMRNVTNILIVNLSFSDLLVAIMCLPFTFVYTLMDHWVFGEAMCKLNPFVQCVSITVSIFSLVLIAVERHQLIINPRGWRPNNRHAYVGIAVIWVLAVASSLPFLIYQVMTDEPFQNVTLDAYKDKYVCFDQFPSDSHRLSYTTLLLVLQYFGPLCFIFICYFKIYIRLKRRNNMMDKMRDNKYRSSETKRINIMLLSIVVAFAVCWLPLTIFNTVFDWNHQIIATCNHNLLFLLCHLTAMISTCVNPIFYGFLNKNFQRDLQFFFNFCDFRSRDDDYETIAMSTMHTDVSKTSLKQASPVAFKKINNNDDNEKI

B1: human neuropeptide Y (peptide)
peptide: not shown
modifications: C-terminal amide
B2: human peptide YY (peptide)
peptide: not shown
modifications: C-terminal amide
notes: mature; also called human PYY; PYY, human
B3: Phe-Met-Arg-Phe-Amide (peptide)
peptide: FMRF-NH2
notes: Tetrapeptide invertebrate neurotransmitter; also called FMRF-amide; FMRFamide
B4: porcine PYY13-36 (peptide, UniProt P68005 13-36, looked up)
peptide: SPEELSRYYASLRHYLNLVTRQRY-NH2
notes: range 13-36; also called PYY13-36, porcine

These binders were tested against T2, human Y4 receptor (human, UniProt P0DQD5 1-375) (assay: cell-based or functional assay).
T2 sequence (P0DQD5 whole entry): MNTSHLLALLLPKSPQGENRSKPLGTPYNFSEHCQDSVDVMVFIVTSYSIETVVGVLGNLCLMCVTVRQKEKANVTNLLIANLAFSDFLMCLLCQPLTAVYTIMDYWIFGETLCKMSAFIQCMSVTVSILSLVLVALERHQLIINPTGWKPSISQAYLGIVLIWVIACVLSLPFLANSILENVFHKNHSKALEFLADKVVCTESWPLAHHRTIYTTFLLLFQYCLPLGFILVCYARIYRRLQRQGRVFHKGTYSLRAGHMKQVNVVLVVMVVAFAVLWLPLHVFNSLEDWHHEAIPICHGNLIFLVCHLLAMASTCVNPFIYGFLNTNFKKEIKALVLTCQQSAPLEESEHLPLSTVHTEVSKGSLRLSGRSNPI

First: PLEPVYPGDNATPEQMAQYAADLRRYINMLTRPRY-NH2 (peptide, UniProt P01298 31-65, looked up) [PP2-36, human]
Second: YINMLTRPRY-NH2 (peptide, UniProt P01298 56-65, looked up, range 27-36) [PP27-36, human]
The “EC50, inhibition of forskolin-stimulated cAMP accumulation, LM(tk-) cells” value (shortened to “EC50, inhibition”) of the first is 44000-fold lower: 0.08 nM for the first, 3500 nM for the second.

First: B1
Second: B2
The “EC50, inhibition” value of the first is 2.4-fold lower: 20 nM for the first, 47 nM for the second.

Going from APLEPVYPGDNATPEQMAQYAADLRRYINMLTRPRY-NH2 (peptide, UniProt P01298 30-65, looked up, mature; also called human PP; PP, human) [human pancreatic polypeptide] to APLEPVYPGDNATPEQMAQYAADLRRYINMITRQRY-NH2 (peptide, UniProt P01298 30-65, looked up, mature) [[Ile^31, Gln^34]PP, human], the “EC50, inhibition” value rises from 0.09 nM to 0.27 nM (3-fold).

Going from LTRPRY-NH2 (peptide, UniProt P01298 60-65, looked up, range 60-65; also called human PP31-36) [PP31-36, human] to TPEQMAQYAADLRRYINMLTRPRY-NH2 (peptide, UniProt P01298 42-65, looked up, range 13-36) [PP13-36, human], the “EC50, inhibition” value falls from 89000 nM to 580 nM (150-fold).

These binders were tested against T2, human Y4 receptor (assay: 125I-PYY displacement, COS-7 membranes).
Description: (§1) Radioligand Binding to Membrane Suspensions: Membrane suspensions were diluted in binding buffer supplemented with 0.1% bovine serum albumin and 0.1% bacitracin to yield an optimal membrane protein concentration: ~0.02 mg/ml for human Y1 receptors, ~0.015 mg/ml for hp25a receptors, and ~0.25 mg/ml for SK-N-Be(2). […] Incubations were terminated by filtration over Whatman GF/C filters (pre-coated with 0.5% polyethyleneimine and air-dried before use). […] Binding data were analyzed using nonlinear regression and statistical techniques available in the GraphPAD InPlot package (San Diego, Calif.). […] Whatman GF/C filters were from Brandel (Gaithersburg, Md.). Bio-Rad Reagent was from Bio-Rad (Hercules, Calif.). Bovine serum albumin and bacitracin were from Sigma (St. Louis, Mo.). All other materials were reagent grade.

Compared with APLEPMYPGDYATHEQRAQYETQLRRYINTLTRPRY-NH2 (peptide, UniProt P06303 30-65, looked up, mature; also called rat PP) [PP, rat], APLEPVYPGDNATPEQMAQYAADLRRYINMITRQRY-NH2 (peptide, UniProt P01298 30-65, looked up, mature) [[Ile^31, Gln^34]PP, human] is 2-fold lower in Ki: 0.18 nM for the first, 0.09 nM for the second. The second binds more tightly here.

First: APLEPEYPGDNATPEQMAQYAAELRRYINMLTRPRY-NH2 (peptide, UniProt P01302 30-65, looked up, mature; also called bovine PP) [PP, bovine]
Second: LTRPRY-NH2 (peptide, UniProt P01298 60-65, looked up, range 60-65; also called human PP31-36) [PP31-36, human]
The Ki of the first is 7000-fold lower: 0.05 nM for the first, 350 nM for the second.

Going from TPEQMAQYAADLRRYINMLTRPRY-NH2 (peptide, UniProt P01298 42-65, looked up, range 13-36) [PP13-36, human] to B3, the Ki rises from 39 nM to 4000 nM (100-fold). The first binds more tightly here.

The binders below were run against T1, human Y1 receptor (assay: 125I-PYY displacement, COS-7 membranes).
Description: as §1

First: APLEPMYPGDYATHEQRAQYETQLRRYINTLTRPRY-NH2 (peptide, UniProt P06303 30-65, looked up, mature; also called rat PP) [PP, rat]
Second: B2
The Ki of the first is 2400-fold higher: 460 nM for the first, 0.19 nM for the second.

APLEPEYPGDNATPEQMAQYAAELRRYINMLTRPRY-NH2 (peptide, UniProt P01302 30-65, looked up, mature; also called bovine PP) [PP, bovine] showed a Ki of 240 nM.

Biological target: T2, human Y4 receptor
Assay: 125I-PYY displacement, COS-7 membranes
Remark: another data set of the same source

In the case of APLEPVYPGDNATPEQMAQYAADLRRYINMLTRPRY-NH2 (peptide, UniProt P01298 30-65, looked up, mature; also called human PP; PP, human) [human pancreatic polypeptide], the Ki is reported as 0.02 nM.

Biological target: T2, human Y4 receptor
Assay: 125I-PYY displacement, COS-7 membranes
Remark: another data set of the same source

First: APLEPMYPGDYATHEQRAQYETQLRRYINTLTRPRY-NH2 (peptide, UniProt P06303 30-65, looked up, mature; also called rat PP) [PP, rat]
Second: APLEPEYPGDNATPEQMAQYAAELRRYINMLTRPRY-NH2 (peptide, UniProt P01302 30-65, looked up, mature; also called bovine PP) [PP, bovine]
The Ki of the first is 3.6-fold higher: 0.18 nM for the first, 0.05 nM for the second.

Work on LTRPRY-NH2 (peptide, UniProt P01298 60-65, looked up, range 60-65; also called human PP31-36) [PP31-36, human] yielded a Ki of 350 nM.

The binders below were run against T3, rat Y4 receptor (rat, UniProt Q63447 1-375) (assay: 125I-PYY displacement, COS-7 membranes).
T3 construct: Full-length receptor (375 aa) transiently expressed in COS-7 cells; membranes used; also called rs16b; rat Y4 homolog
T3 sequence (Q63447 whole entry R262P): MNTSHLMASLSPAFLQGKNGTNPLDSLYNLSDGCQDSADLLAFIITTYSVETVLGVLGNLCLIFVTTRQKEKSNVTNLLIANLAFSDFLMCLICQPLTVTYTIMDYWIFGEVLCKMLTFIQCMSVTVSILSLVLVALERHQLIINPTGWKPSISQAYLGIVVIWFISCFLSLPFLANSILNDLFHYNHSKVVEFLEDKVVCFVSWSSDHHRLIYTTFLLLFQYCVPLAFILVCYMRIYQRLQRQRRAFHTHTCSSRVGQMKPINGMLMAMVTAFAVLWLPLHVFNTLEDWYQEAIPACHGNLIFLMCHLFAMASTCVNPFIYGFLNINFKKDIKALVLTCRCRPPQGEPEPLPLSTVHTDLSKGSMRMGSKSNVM

First: APLEPMYPGDYATHEQRAQYETQLRRYINTLTRPRY-NH2 (peptide, UniProt P06303 30-65, looked up, mature; also called rat PP) [PP, rat]
Second: APLEPVYPGDNATPEQMAQYAADLRRYINMLTRPRY-NH2 (peptide, UniProt P01298 30-65, looked up, mature; also called human PP; PP, human) [human pancreatic polypeptide]
The Ki of the first is 1.7-fold higher: 0.2 nM for the first, 0.12 nM for the second.

First: APLEPEYPGDNATPEQMAQYAAELRRYINMLTRPRY-NH2 (peptide, UniProt P01302 30-65, looked up, mature; also called bovine PP) [PP, bovine]
Second: LTRPRY-NH2 (peptide, UniProt P01298 60-65, looked up, range 60-65; also called human PP31-36) [PP31-36, human]
The Ki of the first is 130-fold lower: 0.15 nM for the first, 20 nM for the second. The first binds more tightly here.

Each binder was assayed against T2, human Y4 receptor (assay: 125I-PYY displacement, COS-7 membranes (as in Table 3)).
Description: as §1

First: YINMLTRPRY-NH2 (peptide, UniProt P01298 56-65, looked up, range 27-36) [PP27-36, human]
Second: APLEPVYPGDNATPEQMAQYAADLRRYINMITRQRY-NH2 (peptide, UniProt P01298 30-65, looked up, mature) [[Ile^31, Gln^34]PP, human]
The Ki of the first is higher: over 88 nM for the first, 0.09 nM for the second. The second binds more tightly here.

Compared with LTRPRY-NH2 (peptide, UniProt P01298 60-65, looked up, range 60-65; also called human PP31-36) [PP31-36, human], TPEQMAQYAADLRRYINMLTRPRY-NH2 (peptide, UniProt P01298 42-65, looked up, range 13-36) [PP13-36, human] is lower in Ki: over 10000 nM for the first, 39 nM for the second. The second binds more tightly here.

Biological target: T2, human Y4 receptor
Assay: 125I-PYY displacement, COS-7 membranes
Remark: another data set of the same source
Description: (§2) Data are representative of at least two independent experiments, with each point measured once or in duplicate.
(§3) Radioligand Binding to Membrane Suspensions: Membrane suspensions were diluted in binding buffer supplemented with 0.1% bovine serum albumin and 0.1% bacitracin to yield an optimal membrane protein concentration: ~0.02 mg/ml for human Y1 receptors, ~0.015 mg/ml for hp25a receptors, and ~0.25 mg/ml for SK-N-Be(2). […] Incubations were terminated by filtration over Whatman GF/C filters (pre-coated with 0.5% polyethyleneimine and air-dried before use). […] Binding data were analyzed using nonlinear regression and statistical techniques available in the GraphPAD InPlot package (San Diego, Calif.).

Compared with B2, B4 is 76-fold higher in Ki: 0.62 nM for the first, 47 nM for the second. The first binds more tightly here.

Biological target: T1, human Y1 receptor
Assay: 125I-PYY displacement, COS-7 membranes
Remark: another data set of the same source
Description: as §2, §3

Binder B2 has a Ki of 0.085 nM.
